The target in this experiment is Polymorphonuclear leukocyte elastase from human sputum (EPC Co.; Funakoshi Yakuhin) (human) (UniProt P08246).

No end group written: not given here.

A word on the IC50: it is the point on the concentration scale where inhibition reaches its midpoint.

B1: by-product oligomer formed in Example 17 (peptide)
chain: RKPGKCPVTYGQCLMLNPPNFCEMDGQCKRDLKCCMGMCGKSCVSPVKA
modifications: also: oligomer formed during refolding, number of chains and linkages not given here
Take B1: the IC50 amounted to 300 nM.
